Data on seven sequences can be found in the Immune Epitope Database (IEDB).

The target of assay [1] is HLA-A*01:01. The assay is described as follows: IEDB peptide-MHC binding, purified MHC/direct/fluorescence; filed as Kd, often an IC50 or EC50 that approximates it; ≥ and ≤ were set here for values at or beyond the usual limits of such assays. The following applies: source organism: Salmonella enterica.
For assay [2], the target named is HLA-A*02:01. The description is as above. The following applies: source organism: Salmonella enterica.
The target in the next assay is HLA-A*02:16. The assay is described as above. The following applies: source organism: Salmonella enterica subsp. enterica serovar Typhimurium str. LT2.
Assay [3] addresses HLA-A*03:01. The assay is described as above. The following applies: source organism: Salmonella enterica.
In the next assay the target is HLA-A*11:01. The assay is described as above. To be noted: source organism: Salmonella enterica.
For another assay, the target named is HLA-A*69:01. The description is as above. To be noted: source organism: Salmonella enterica.
A further assay addresses HLA-B*07:02. The assay is described as above. The following applies: source organism: Salmonella enterica.
The next assay addresses HLA-B*08:01. The assay is described as above. The following applies: source organism: Salmonella enterica subsp. enterica serovar Typhimurium str. LT2.
Assay [4] deals with HLA-B*15:01. The description is as above. The following applies: source organism: Salmonella enterica.
For assay [5], the target named is HLA-B*27:05. Described as above. To be noted: source organism: Salmonella enterica.
For the next assay, the target named is HLA-B*40:01. Described as above. The following applies: source organism: Salmonella enterica.
For the next assay, the target named is HLA-B*44:02. The assay is described as above. The following applies: source organism: Salmonella enterica.
Assay [6] deals with HLA-B*58:01. Described as above. The following applies: source organism: Salmonella enterica.
For another assay, the target named is HLA-C*14:02. Described as above. The following applies: source organism: Salmonella enterica subsp. enterica serovar Typhi str. CT18.
Another assay deals with HLA-A*02:50. The assay is described as follows: IEDB peptide-MHC binding, purified MHC/competitive/fluorescence; filed as Kd, often an IC50 or EC50 that approximates it; ≥ and ≤ were set here for values at or beyond the usual limits of such assays. To be noted: source organism: Salmonella enterica subsp. enterica serovar Typhi.
Assay [7] deals with HLA-A*02:01. The description is as above. To be noted: source organism: Human immunodeficiency virus 1.
In another assay the target is HLA-A*02:03. Described as above. To be noted: source organism: Human immunodeficiency virus 1.
The target in the next assay is HLA-A*02:06. The assay is described as above. The following applies: source organism: Human immunodeficiency virus 1.
The target of the next assay is HLA-A*26:01. The description is as above. The following applies: source organism: Human immunodeficiency virus 1.
For the next assay, the target named is HLA-A*68:02. The description is as above. To be noted: source organism: Human immunodeficiency virus 1.
The target in the next assay is HLA-B*08:02. Described as above. To be noted: source organism: Human immunodeficiency virus 1.
Another assay deals with HLA-B*18:01. Described as above. To be noted: source organism: Human immunodeficiency virus 1.
The target of the next assay is HLA-B*39:01. Described as above. The following applies: source organism: Human immunodeficiency virus 1.
The next assay deals with HLA-B*40:02. The assay is described as follows: IEDB peptide-MHC binding, cellular MHC/competitive/fluorescence; ≥ and ≤ were set here for values at or beyond the usual limits of such assays. To be noted: source organism: Homo sapiens.
A further assay deals with HLA-A*24:02. The assay is described as follows: IEDB peptide-MHC binding, purified MHC/competitive/radioactivity; ≥ and ≤ were set here for values at or beyond the usual limits of such assays. To be noted: source organism: Homo sapiens.
For assay [8], the target named is HLA-A*01:01. Nature of the assay: IEDB peptide-MHC binding, purified MHC/competitive/fluorescence; filed as Kd, often an IC50 or EC50 that approximates it; ≥ and ≤ were set here for values at or beyond the usual limits of such assays. To be noted: source organism: Yersinia pseudotuberculosis IP 31758.
Assay [9] deals with HLA-A*03:01. The description is as above. The following applies: source organism: Yersinia pseudotuberculosis IP 31758.
The target in the next assay is HLA-A*68:23. Described as above. To be noted: source organism: Yersinia pseudotuberculosis IP 31758.
Assay [10] concerns the target HLA-B*15:01. Described as above. The following applies: source organism: Yersinia pseudotuberculosis IP 31758.
Another assay has as its target HLA-B*15:42. The description is as above. The following applies: source organism: Yersinia pseudotuberculosis IP 31758.
For another assay, the target named is HLA-B*45:06. The assay is described as above. To be noted: source organism: Yersinia pseudotuberculosis IP 31758.
Assay [11] addresses HLA-B*58:01. The assay is described as above. The following applies: source organism: Yersinia pseudotuberculosis IP 31758.
The target of the next assay is HLA-B*83:01. The assay is described as above. The following applies: source organism: Yersinia pseudotuberculosis IP 31758.
A further assay deals with HLA-C*04:01. The assay is described as above. The following applies: source organism: Yersinia pseudotuberculosis IP 31758.
A further assay has as its target HLA-A*02:05. Nature of the assay: IEDB peptide-MHC binding, purified MHC/competitive/radioactivity; filed as Kd, often an IC50 or EC50 that approximates it; ≥ and ≤ were set here for values at or beyond the usual limits of such assays. To be noted: source organism: Hepatitis C virus (isolate Taiwan).
The target of the next assay is HLA-A*02:07. The assay is described as above. The following applies: source organism: Hepatitis C virus (isolate Taiwan).
For assay [12], the target named is HLA-B*27:05. Nature of the assay: IEDB peptide-MHC binding, purified MHC/competitive/radioactivity; ≥ and ≤ were set here for values at or beyond the usual limits of such assays. To be noted: source organism: Human papillomavirus 16.

In general, Kd refers to the equilibrium constant for the complex coming apart. Take AMMWRIAQL: the Kd with HLA-A*01:01 [1] is at least 20000 nM; with HLA-A*02:01 [2] it was 26.2 nM; with HLA-A*02:16, at most 1 nM; in the assay with HLA-A*03:01 [3], at least 20000 nM; with HLA-A*11:01, at least 20000 nM; with HLA-A*69:01, 2000 nM. Further, the Kd with HLA-B*07:02 is at least 20000 nM; with HLA-B*08:01 it was 612 nM; in the assay with HLA-B*15:01 [4] it was 171 nM; in the assay with HLA-B*27:05 [5], 348 nM; with HLA-B*40:01, 2280 nM; with HLA-B*44:02, at least 20000 nM. Besides, the Kd with HLA-B*58:01 [6] was at least 20000 nM; in the assay with HLA-C*14:02, 118 nM; in the assay with HLA-A*02:50, at most 0.1 nM.
Regarding IEVKDTKEAL, the Kd with HLA-A*02:01 [7] was 681 nM; in the assay with HLA-A*02:03 it was at least 20000 nM; in the assay with HLA-A*02:06, 574 nM; in the assay with HLA-A*26:01, at least 20000 nM; with HLA-A*68:02, 766 nM; with HLA-B*08:02 it was at least 20000 nM. The Kd is 314 nM with HLA-B*18:01 and at least 20000 nM with HLA-B*39:01.
One may read the IC50 as the concentration at which inhibition is half-maximal. Take KEHSLQVSP: the IC50 with HLA-B*40:02 amounted to 1900 nM.
KYAGESFPGI: the IC50 in the assay with HLA-A*24:02 was determined as 838 nM.
With RQIRMTSTI, the Kd in the assay with HLA-A*01:01 [8] was 3000 nM; in the assay with HLA-A*03:01 [9] it was at least 20000 nM; in the assay with HLA-A*68:23, 427 nM; with HLA-B*15:01 [10], 163 nM; with HLA-B*15:42, at least 5000 nM; with HLA-B*45:06, at least 5000 nM. Besides, the Kd was 617 nM with HLA-B*58:01 [11], at least 5000 nM in the assay with HLA-B*83:01 and at least 5000 nM with HLA-C*04:01.
In the case of YLVAYQATV, the Kd amounted to 8.5 nM with HLA-A*02:05 and 2300 nM in the assay with HLA-A*02:07.
As to YRHYCYSL, the IC50 with HLA-B*27:05 [12] came out at 12 nM.
